# According to article PMC8539536, “Generation of a Soluble Form of Human Endoglin Fused to Green Fluorescent Protein” (International Journal of Molecular Sciences, 2021):
# Target: the molecule itself
# Experiment: SDS-PAGE under reducing and nonreducing conditions with Western blot; 3-day culture medium of CHO-K1 transfectants separated under reducing or nonreducing conditions; immunodetection with anti-GFP antibodies; positions of dimer and monomer compared
protein,measurement,value
"endoglin–GFP fusion protein (extracellular domain of human endoglin fused with EGFP, from pEGFP–N1/Eng.EC) (domain or fragment, UniProt P17813 26-586, looked up, then a linker of 19 amino acids and 239 residues of GFP, 844 amino acids in all; Disulfide-linked dimer of ~275 kDa; glycosylated; also called Eng–GFP; source: CHO-K1, stably transfected with pEGFP–N1/Eng.EC, secreted, in culture medium; not shown: EGFP, C-terminal, kept) ETVHCDLQPVGPERGEVTYTTSQVSKGCVAQAPNAILEVHVLFLEFPTGPSQLELTLQASKQNGTWPREVLLVLSVNSSVFLHLQALGIPLHLAYNSSLVTFQEPPGVNTTELPSFPKTQILEWAAERGPITSAAELNDPQSILLRLGQAQGSLSFCMLEASQDMGRTLEWRPRTPALVRGCHLEGVAGHKEAHILRVLPGHSAGPRTVTVKVELSCAPGDLDAVLILQGPPYVSWLIDANHNMQIWTTGEYSFKIFPEKNIRGFKLPDTPQGLLGEARMLNASIVASFVELPLASIVSLHASSCGGRLQTSPAPIQTTPPKDTCSPELLMSLIQTKCADDAMTLVLKKELVAHLKCTITGLTFWDPSCEAEDRGDKFVLRSAYSSCGMQVSASMISNEAVVNILSSSSPQRKKVHCLNMDSLSFQLGLYLSPHFLQASNTIEPGQQSFVQVRVSPSVSEFLLQLDSCHLDLGPEGGTVELIQGRAAKGNCVSLLSPSPEGDPRFSFLLHFYTVPIPKTGTLSCTVALRPKTGSQDQEVHRTVFMRLNIISPDLSGCTSKG",stoichiometry N,2
